± gives the standard deviation of the averaged measurements.
Assay: total protein half-life in vivo (active degradation + dilution); higher = more stable protein
[1] = E. coli NCM3722 delta-clpP delta-lon delta-hslV, growth: N-lim chemostat, doubling time 6 h
[2] = E. coli NCM3722 delta-clpP, growth: N-lim chemostat, doubling time 6 h
[3] = E. coli NCM3722 delta-hslV, growth: N-lim chemostat, doubling time 6 h
[4] = E. coli NCM3722 delta-lon, growth: N-lim chemostat, doubling time 6 h
[5] = E. coli NCM3722 delta-smpB, growth: N-lim chemostat, doubling time 6 h
[6] = wild type E. coli NCM3722, growth: C-lim chemostat, doubling time 3 h
[7] = wild type E. coli NCM3722, growth: C-lim chemostat, doubling time 6 h
[8] = wild type E. coli NCM3722, growth: C-lim chemostat, doubling time 12 h
[9] = wild type E. coli NCM3722, growth: N-lim chemostat, doubling time 6 h
[10] = wild type E. coli NCM3722, growth: N-lim chemostat, doubling time 12 h
[11] = wild type E. coli NCM3722, growth: P-lim chemostat, doubling time 6 h
[12] = wild type E. coli NCM3722, growth: P-lim chemostat, doubling time 12 h

## MDIIFYHPTFDTQWWIEALRKAIPQARVRAWKSGDNDSADYALVWHPPVEMLAGRDLKAVFALGAGVDSILSKLQAHPEMLNPSVPLFRLEDTGMGEQMQEYAVSQVLHWFRRFDDYRIQQNSSHWQPLPEYHREDFTIGILGAGVLGSKVAQSLQTWRFPLRCWSRTRKSWPGVQSFAGREELSAFLSQCRVLINLLPNTPETVGIINQQLLEKLPDGAYLLNLARGVHVVEDDLLAALDSGKVKGAMLDVFNREPLPPESPLWQHPRVTITPHVAAITRPAEAVEYISRTIAQLEKGERVCGQVDRARGY
[1]
  total protein half-life in vivo: 5.02 ± 0.051 h
[2]
  total protein half-life in vivo: 4.58 ± 0.51 h
[3]
  total protein half-life in vivo: 5.71 ± 1.3 h
[4]
  total protein half-life in vivo: 4.67 ± 0.34 h
[5]
  total protein half-life in vivo: 4.43 ± 0.24 h
[6]
  total protein half-life in vivo: 2.69 ± 0.43 h
[7]
  total protein half-life in vivo: 5.64 ± 0.55 h
[8]
  total protein half-life in vivo: 10.3 ± 1.4 h
[9]
  total protein half-life in vivo: 4.45 ± 0.25 h
[10]
  total protein half-life in vivo: 7.3 ± 0.49 h
[11]
  total protein half-life in vivo: 5.821 ± 0.027 h
[12]
  total protein half-life in vivo: 11 ± 0.45 h

## MDIIGGQHLRQMWDDLADVYGHKTALICESSGGVVNRYSYLELNQEINRTANLFYTLGIRKGDKVALHLDNCPEFIFCWFGLAKIGAIMVPINARLLCEESAWILQNSQACLLVTSAQFYPMYQQIQQEDATQLRHICLTDVALPADDGVSSFTQLKNQQPATLCYAPPLSTDDTAEILFTSGTTSRPKGVVITHYNLRFAGYYSAWQCALRDDDVYLTVMPAFHIDCQCTAAMAAFSAGATFVLVEKYSARAFWGQVQKYRATVTECIPMMIRTLMVQPPSANDQQHRLREVMFYLNLSEQEKDAFCERFGVRLLTSYGMTETIVGIIGDRPGDKRRWPSIGRVGFCYEAEIRDDHNRPLPAGEIGEICIKGIPGKTIFKEYFLNPQATAKVLEADGWLHTGDTGYRDEEDFFYFVDRRCNMIKRGGENVSCVELENIIAAHPKIQDIVVVGIKDSIRDEAIKAFVVLNEGETLSEEEFFRFCEQNMAKFKVPSYLEIRKDLPRNCSGKIIRKNLK
[1]
  total protein half-life in vivo: 5.31 h
[3]
  total protein half-life in vivo: 6.57 h
[5]
  total protein half-life in vivo: 3.61 ± 0.13 h
[8]
  total protein half-life in vivo: 11.3 h
[9]
  total protein half-life in vivo: 4.98 h
[10]
  total protein half-life in vivo: 7.9 h
[12]
  total protein half-life in vivo: 10.7 ± 0.12 h

## MDIISVALKRHSTKAFDASKKLTPEQAEQIKTLLQYSPSSTNSQPWHFIVASTEEGKARVAKSAAGNYVFNERKMLDASHVVVFCAKTAMDDVWLKLVVDQEDADGRFATPEAKAANDKGRKFFADMHRKDLHDDAEWMAKQVYLNVGNFLLGVAALGLDAVPIEGFDAAILDAEFGLKEKGYTSLVVVPVGHHSVEDFNATLPKSRLPQNITLTEV
[1]
  total protein half-life in vivo: 2.56 ± 0.26 h
[2]
  total protein half-life in vivo: 1.66 ± 0.42 h
[3]
  total protein half-life in vivo: 1.405 ± 0.01 h
[4]
  total protein half-life in vivo: 2.01 ± 0.14 h
[5]
  total protein half-life in vivo: 1.62 ± 0.067 h
[6]
  total protein half-life in vivo: 2.72 ± 0.21 h
[7]
  total protein half-life in vivo: 3.38 ± 0.86 h
[8]
  total protein half-life in vivo: 5.94 ± 0.37 h
[9]
  total protein half-life in vivo: 1.58 ± 0.097 h
[10]
  total protein half-life in vivo: 2.17 ± 0.057 h
[11]
  total protein half-life in vivo: 4.45 ± 0.91 h
[12]
  total protein half-life in vivo: 7.04 ± 0.45 h

## MDINNKARIHWACRRGMRELDISIMPFFEHEYDSLSDDEKRIFIRLLECDDPDLFNWLMNHGKPADAELEMMVRLIQTRNRERGPVAI
[1]
  total protein half-life in vivo: 5.79 ± 0.24 h
[6]
  total protein half-life in vivo: 3 h
[8]
  total protein half-life in vivo: 6.71 h
[11]
  total protein half-life in vivo: 4.97 h
[12]
  total protein half-life in vivo: 11.3 ± 2.2 h

## MDIPRIFTISESEHRIHNPFTEEKYATLGRVLRMKPGTRILDLGSGSGEMLCTWARDHGITGTGIDMSSLFTAQAKRRAEELGVSERVHFIHNDAAGYVANEKCDVAACVGATWIAGGFAGAEELLAQSLKPGGIMLIGEPYWRQLPATEEIAQACGVSSTSDFLTLPGLVGAFDDLGYDVVEMVLADQEGWDRYEAAKWLTMRRWLEANPDDDFAAEVRAELNIAPKRYVTYARECFGWGVFALIAR
[1]
  total protein half-life in vivo: 5.64 ± 0.16 h
[3]
  total protein half-life in vivo: 5.71 ± 1.8 h
[5]
  total protein half-life in vivo: 3.54 ± 0.12 h
[6]
  total protein half-life in vivo: 2.7 ± 0.65 h
[7]
  total protein half-life in vivo: 4.93 ± 0.38 h
[8]
  total protein half-life in vivo: 9.89 ± 1.2 h
[9]
  total protein half-life in vivo: 3.97 h
[10]
  total protein half-life in vivo: 8.49 h
[11]
  total protein half-life in vivo: 7.11 h
[12]
  total protein half-life in vivo: 12.41 ± 0.083 h
